B1: INTS3 (parent)
chain: DLNSKGKKREFRFHPIKETVVEEP
B2: FBF1 (parent)
chain: FGDSPKAEKRQIGDQEGPRPARST

Variants of: B1
Experiment: protein stability index of a GFP-peptide fusion (GPS, HEK-293T) (PSI 1-6); higher = more stable
Conditions: c terminus: a fixed tail appended
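Also: lentivirally expressed fusions sorted by FACS into six bins by GFP to DsRed ratio, PSI derived from sequencing read proportions per bin multiplied by bin number.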

Row | Variant | protein stability index
1 | DRNSKGKKREFRFHPIKETVVEEP [L2R] | 2.34
2 | DPNSKGKKREFRFHPIKETVVEEP [L2P] | 2.74
3 | DKNSKGKKREFRFHPIKETVVEEP [L2K] | 2.09
4 | DSNSKGKKREFRFHPIKETVVEEP [L2S] | 2.89
5 | DMNSKGKKREFRFHPIKETVVEEP [L2M] | 1.81
6 | DDNSKGKKREFRFHPIKETVVEEP [L2D] | 2.82
7 | DYNSKGKKREFRFHPIKETVVEEP [L2Y] | 1.89
8 | DNNSKGKKREFRFHPIKETVVEEP [L2N] | 2.96
9 | DCNSKGKKREFRFHPIKETVVEEP [L2C] | 2.22
10 | DHNSKGKKREFRFHPIKETVVEEP [L2H] | 2
11 | DTNSKGKKREFRFHPIKETVVEEP [L2T] | 2.28
12 | DANSKGKKREFRFHPIKETVVEEP [L2A] | 2.73
13 | DINSKGKKREFRFHPIKETVVEEP [L2I] | 2.36
14 | DGNSKGKKREFRFHPIKETVVEEP [L2G] | 2.8
15 | DFNSKGKKREFRFHPIKETVVEEP [L2F] | 2.2
16 | DWNSKGKKREFRFHPIKETVVEEP [L2W] | 1.9
17 | DENSKGKKREFRFHPIKETVVEEP [L2E] | 2.26
18 | DQNSKGKKREFRFHPIKETVVEEP [L2Q] | 2.69
19 | DVNSKGKKREFRFHPIKETVVEEP [L2V] | 3.25
20 | DLISKGKKREFRFHPIKETVVEEP [N3I] | 1.88
21 | DLYSKGKKREFRFHPIKETVVEEP [N3Y] | 2.54

Row | Variant | protein stability index
22 | DLASKGKKREFRFHPIKETVVEEP [N3A] | 1.83
23 | DLQSKGKKREFRFHPIKETVVEEP [N3Q] | 2.33
24 | DLRSKGKKREFRFHPIKETVVEEP [N3R] | 2.08
25 | DLHSKGKKREFRFHPIKETVVEEP [N3H] | 1.88
26 | DLCSKGKKREFRFHPIKETVVEEP [N3C] | 1.78
27 | DLKSKGKKREFRFHPIKETVVEEP [N3K] | 2.19
28 | DLVSKGKKREFRFHPIKETVVEEP [N3V] | 1.53
29 | DLFSKGKKREFRFHPIKETVVEEP [N3F] | 1.51
30 | DLESKGKKREFRFHPIKETVVEEP [N3E] | 2.9
31 | DLLSKGKKREFRFHPIKETVVEEP [N3L] | 2.16
32 | DLPSKGKKREFRFHPIKETVVEEP [N3P] | 1.87
33 | DLSSKGKKREFRFHPIKETVVEEP [N3S] | 1.76
34 | DLTSKGKKREFRFHPIKETVVEEP [N3T] | 2.4
35 | DLMSKGKKREFRFHPIKETVVEEP [N3M] | 1.77
36 | DLWSKGKKREFRFHPIKETVVEEP [N3W] | 1.8
37 | DLGSKGKKREFRFHPIKETVVEEP [N3G] | 2.2
38 | DLDSKGKKREFRFHPIKETVVEEP [N3D] | 2.79
39 | PLNSKGKKREFRFHPIKETVVEEP [D1P] | 1.48
40 | GLNSKGKKREFRFHPIKETVVEEP [D1G] | 2.23
41 | FLNSKGKKREFRFHPIKETVVEEP [D1F] | 2.24
42 | KLNSKGKKREFRFHPIKETVVEEP [D1K] | 2.23

Row | Variant | protein stability index
43 | SLNSKGKKREFRFHPIKETVVEEP [D1S] | 1.55
44 | MLNSKGKKREFRFHPIKETVVEEP [D1M] | 1.86
45 | YLNSKGKKREFRFHPIKETVVEEP [D1Y] | 1.67
46 | CLNSKGKKREFRFHPIKETVVEEP [D1C] | 2.26
47 | RLNSKGKKREFRFHPIKETVVEEP [D1R] | 1.97
48 | TLNSKGKKREFRFHPIKETVVEEP [D1T] | 1.52
49 | LLNSKGKKREFRFHPIKETVVEEP [D1L] | 2.23
50 | NLNSKGKKREFRFHPIKETVVEEP [D1N] | 1.56
51 | HLNSKGKKREFRFHPIKETVVEEP [D1H] | 2.83
52 | ALNSKGKKREFRFHPIKETVVEEP [D1A] | 2.01
53 | VLNSKGKKREFRFHPIKETVVEEP [D1V] | 2.47
54 | QLNSKGKKREFRFHPIKETVVEEP [D1Q] | 2.02
55 | ILNSKGKKREFRFHPIKETVVEEP [D1I] | 1.28
56 | ELNSKGKKREFRFHPIKETVVEEP [D1E] | 2.43
57 | DLNAKGKKREFRFHPIKETVVEEP [S4A] | 2.42
58 | DLNCKGKKREFRFHPIKETVVEEP [S4C] | 2.27
59 | DLNEKGKKREFRFHPIKETVVEEP [S4E] | 3.09
60 | DLNDKGKKREFRFHPIKETVVEEP [S4D] | 2.6
61 | DLNFKGKKREFRFHPIKETVVEEP [S4F] | 2.77

Variants of: B2
Experiment: as above
Conditions: c terminus: a fixed tail appended

Row | Variant | protein stability index
62 | FGDSPKAEKRQIGDQETPRPARST [G17T] | 4.67
63 | FGDSPKAEKRQIGDQENPRPARST [G17N] | 5.06
64 | FGDSPKAEKRQIGDQERPRPARST [G17R] | 5.1
65 | FGDSPKAEKRQIGDQEMPRPARST [G17M] | 4.83
66 | FGDSPKAEKRQIGDQEWPRPARST [G17W] | 4.17
67 | FGDSPKAEKRQIGDQEYPRPARST [G17Y] | 4.68
68 | FGDSPKAEKRQIGDQEPPRPARST [G17P] | 5.54
69 | FGDSPKAEKRQIGDQESPRPARST [G17S] | 5.46
70 | FGDSPKAEKRQIGDQEQPRPARST [G17Q] | 5.15
71 | FGDSPKAEKRQIGDQEVPRPARST [G17V] | 4.42
72 | FGDSPKAEKRQIGDQEGPRPRRST [A21R] | 4.59
73 | FGDSPKAEKRQIGDQEGPRPIRST [A21I] | 4.77
74 | FGDSPKAEKRQIGDQEGPRPYRST [A21Y] | 4.86
75 | FGDSPKAEKRQIGDQEGPRPSRST [A21S] | 4.37
76 | FGDSPKAEKRQIGDQEGPRPFRST [A21F] | 4.52
77 | FGDSPKAEKRQIGDQEGPRPVRST [A21V] | 5.42
78 | FGDSPKAEKRQIGDQEGPRPQRST [A21Q] | 5.62

Row | Variant | protein stability index
79 | FGDSPKAEKRQIGDQEGPRPKRST [A21K] | 5.23
80 | FGDSPKAEKRQIGDQEGPRPGRST [A21G] | 5.73
81 | FGDSPKAEKRQIGDQEGPRPMRST [A21M] | 4.92
82 | FGDSPKAEKRQIGDQEGPRPPRST [A21P] | 5.19
83 | FGDSPKAEKRQIGDQEGPRPTRST [A21T] | 5.9
84 | FGDSPKAEKRQIGDQEGPRPCRST [A21C] | 5.2
85 | FGDSPKAEKRQIGDQEGPRPHRST [A21H] | 4.93
86 | FGDSPKAEKRQIGDQEGPRPNRST [A21N] | 5.34
87 | FGDSPKAEKRQIGDQEGPRPDRST [A21D] | 5.5
88 | FGDSPKAEKRQIGDQEGPRPLRST [A21L] | 4.17
89 | FGDSPKAEKRQIGDQEGPRNARST [P20N] | 4.89
90 | FGDSPKAEKRQIGDQEGPRAARST [P20A] | 5.25
91 | FGDSPKAEKRQIGDQEGPRMARST [P20M] | 4.96
92 | FGDSPKAEKRQIGDQEGPRYARST [P20Y] | 4.91
93 | FGDSPKAEKRQIGDQEGPRDARST [P20D] | 5.07
94 | FGDSPKAEKRQIGDQEGPRGARST [P20G] | 3.96

Reference: the supplement of paper PMC10567573
